Data: patent publication US11448657B2, “Methods and kits for assessing Heparanase procoagulant activity, compositions comprising Heparanase, and methods for the treatment of coagulation-related disorders” (RAMBAM MED-TECH, priority 2011, dated 2022)
“Also recorded” adds a separate entry of the source. Ends that are not written are not given here.

T1: TF/heparanase complex (Homo sapiens, UniProt Q9Y251)
T1 construct: endogenous in cells; host or cells: ICR mice in vivo (TF endogenous)
T1 sequence (Q9Y251 36-543): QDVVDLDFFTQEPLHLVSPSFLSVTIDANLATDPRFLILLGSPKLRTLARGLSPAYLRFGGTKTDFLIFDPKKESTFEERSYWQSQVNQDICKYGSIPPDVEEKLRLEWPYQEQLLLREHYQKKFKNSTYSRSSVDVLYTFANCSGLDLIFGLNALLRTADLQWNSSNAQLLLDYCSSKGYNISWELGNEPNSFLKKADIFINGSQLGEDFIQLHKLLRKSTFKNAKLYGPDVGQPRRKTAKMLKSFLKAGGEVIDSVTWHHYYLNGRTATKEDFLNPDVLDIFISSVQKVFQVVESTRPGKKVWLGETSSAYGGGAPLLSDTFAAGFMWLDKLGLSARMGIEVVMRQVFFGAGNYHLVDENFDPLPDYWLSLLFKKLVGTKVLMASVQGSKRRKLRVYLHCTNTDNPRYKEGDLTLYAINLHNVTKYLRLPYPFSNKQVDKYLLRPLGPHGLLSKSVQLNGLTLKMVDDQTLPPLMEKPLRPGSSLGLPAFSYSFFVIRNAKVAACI


Assays:
TF/heparanase complex [1] = biological target: T2, TF/heparanase complex (Homo sapiens, UniProt P13726+Q9Y251, DEL111-157/INS109GSGSG); experiment: Inhibition of heparanase procoagulant activity in the thrombin generation assay; type: biochemical; settings: for heparanase procoagulant activity (thrombin generation): inhibitor added to the thrombin generation assay with heparanase
T2 construct: comprised of the 8 kDa and 50 kDa heparanase heterodimer (8+50); purchased American Diagnostica (Stanford, Conn., USA) for TF and factor VIIa; host or cells: heparanase GS3 made in house: conditioned medium of baculovirus-infected cells
Procedure: FIG. 6B. Heparanase procoagulant activity is attenuated by TFPI and TFPI-2. Same as FIG. 1D, except that recombinant human TFPI and TFPI-2 were added prior to heparanase addition. The mean value±SD of three independent experiments is shown.
FIG. 6C. Heparanase procoagulant activity is abrogated by an anti-Xa derivative.
In order to verify that factor Xa produced in the presence of heparanase is active, thrombin generation, the next step in the coagulation cascade, was examined. The experiment described above (FIG. 1A) was repeated and plasma-derived human prothrombin (222 μM) was added following the addition of factor X. After 15 minutes at 37° C., chromogenic substrate for thrombin was added (1 mM). In the presence of heparanase, thrombine generation was increased (FIG. 1D).

TF/heparanase complex [2] = biological target: T2, TF/heparanase complex; experiment: Inhibition of heparanase procoagulant activity in the factor Xa generation assay; type: biochemical; settings: for procoagulant effect of heparanase on Xa level: co-addition of peptide with heparanase, FIG. 23A; for procoagulant effect induced by heparanase (Xa level): peptide 25 μg/ml (15 μM), heparanase 1.5 μM, FIG. 26
Procedure: FIG. 23A. Factor Xa levels was evaluated by chromogenic substrate in an in-vitro assay including purified proteins of tissue factor (TF), factor VIIa, factor X and assay buffer.
FIG. 26. Factor Xa levels was evaluated by chromogenic substrate in an in-vitro assay including lipidated TF (0.004 μM), factor VIIa (0.04 μM) and factor X (1.4 μM). The Xa level was studied by a chromogenic substrate (1 mM).
(§1) Following preliminary experiments to quantify the appropriate protein doses, we performed a basic experiment of factor Xa generation in the following manner: the concentrations mentioned are the final concentrations. Lipidated recombinant human TF (0.004 μM, […]), recombinant human factor VIIa (0.04 μM) and plasma-derived human factor X (1.4 μM) were incubated in 50 μL assay buffer (0.06 M Tris, 0.04 M NaCl, 2 mM CaCl 2, 0.04% bovine serum albumin, pH 8.4) to a total volume of 125 μL in a 96-well sterile plate. After 15 min at 37° C., chromogenic substrate for factor Xa was added (1 mM). After 20 min, the reaction was stopped with 50 μL of glacial acetic acid and the level of factor Xa generation was determined using an enzyme-linked immunosorbent assay (ELISA) plate reader (Power Wave XS, BIO-TEK, VT, USA). In order to visualize the increased production of factor Xa by western blotting, the experiment was repeated with 7 μM factor X. After 15 min at 37° C., half of the reaction volume was subjected to blotting using monoclonal anti-human factor X/Xa heavy chain antibody.
The coagulation assay included the peptides and the following components: lipidated TF (0.004 μM), factor VIIa (0.04 μM) and factor X (1.4 μM). The Xa level was studied by a chromogenic substrate (1 mM).

TF/heparanase complex [3] = biological target: T1, TF/heparanase complex; experiment: TF/heparanase inhibitory peptides in heparanase-injected ICR mice (TAT by ELISA); type: in vivo; settings: peptide intra-peritoneal half an hour after heparanase, blood after 4 hours
Procedure: FIG. 23B. Heparanase was injected intra-peritoneal to ICR mice. Inhibitory peptides to TF/heparanase complex (number 5, 6, 21) were injected intra-peritoneal half an hour after heparanase. Four hours later the blood was drawn and Thrombin-antithrombin (TAT) level was measured by ELISA.
Methods: ICR mice, heparanase knock-out mice and heparanase over-expression mice were studied. Sepsis was induced by intra-peritoneal injection of lipopolysaccharides (LPS). Inhibitory peptides to TF/heparanase complex (number 11, 22, 5, 6, 7, 12, and 21 [SEQ IDs: 1-7]) were injected intra-peritoneal half an hour after heparanase or LPS. After 4 hours blood was obtained via sub-mandibular plexus puncture followed by mice sacrificing. Levels of thrombin-antithrombin (TAT), D-Dimer and IL-6 were tested using ELISA. Western blot to plasma factor VII and immunostaining of fibrinogen in lung, kidney and spleen were performed.

[4] = Water solubility of the peptides; type: physicochemical
TF-factor VIIa complex = biological target: T3, TF-factor VIIa complex (Homo sapiens, UniProt P13726); experiment: Activated factor X generation assay with purified TF, factor VIIa and factor X (chromogenic substrate); type: biochemical; settings: overnight serum-free medium of 293 HEK cells over-expressing heparanase species, compared to mock
T3 construct: purchased American Diagnostica (Stanford, Conn., USA)
Procedure: FIG. 1A. Recombinant human TF, recombinant human factor VIIa, and plasma-derived human factor X were incubated (15 min, 37° C.) in a total assay volume of 125 μL. Chromogenic substrate for the detection of factor Xa was then added (final concentration 1 mM). Recombinant active heparanase GS3 (Hepa) was added prior to the addition of the coagulation factors. The mean value±SD of three independent experiments in shown. […]
FIG. 1C. […] The mean value of two experiments is shown. Note a 2-fold increase in coagulation activity when the medium contained heparanase or its derivatives.
as §1
The factor Xa generation assay was performed as described in the Design and Methods section with increasing doses of recombinant human heparanase (GS3) added prior to the addition of the coagulation factors. […] It should be noted that factor X is composed of two polypeptide chains, a heavy chain with a molecular weight of 38 kDa and a light chain with a molecular weight of 18 kDa joined by a dipeptide Arg-Arg. The factor VIIa-TF complex activates the conversion of factor X to factor Xa by cleaving the heavy chain to a 33 kDa peptide. […] In order to exclude contamination of the heparanase preparation during the routine procedure of purification described in the Design and Methods section, the inventors tested the effect of overnight serum-free without phenol medium of 293 HEK cells over-expressing heparanase and its derivatives compared to mock. The proteins were further purified from the culture medium and analyzed. Similar quantities of proteins were obtained from the culture media.

T2 sequence (P13726 33-295, stated change not applied, one chain of several): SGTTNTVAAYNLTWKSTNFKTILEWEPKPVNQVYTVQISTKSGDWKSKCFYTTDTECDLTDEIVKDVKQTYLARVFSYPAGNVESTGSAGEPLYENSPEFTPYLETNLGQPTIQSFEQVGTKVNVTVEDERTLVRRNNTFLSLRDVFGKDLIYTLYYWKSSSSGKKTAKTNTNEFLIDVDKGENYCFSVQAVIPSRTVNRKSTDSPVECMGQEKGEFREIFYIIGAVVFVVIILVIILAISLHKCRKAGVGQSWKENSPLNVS
T3 sequence (P13726 33-295): as the sequence (P13726 33-295, stated change not applied, one chain of several) above
T3 sequence (P08709 61-212 partner limits assumed): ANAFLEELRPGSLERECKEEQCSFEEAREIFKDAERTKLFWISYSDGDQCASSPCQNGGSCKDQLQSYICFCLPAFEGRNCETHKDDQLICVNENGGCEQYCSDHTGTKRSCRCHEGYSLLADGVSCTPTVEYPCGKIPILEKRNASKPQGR
T3 sequence (P08709 213-466 partner limits assumed): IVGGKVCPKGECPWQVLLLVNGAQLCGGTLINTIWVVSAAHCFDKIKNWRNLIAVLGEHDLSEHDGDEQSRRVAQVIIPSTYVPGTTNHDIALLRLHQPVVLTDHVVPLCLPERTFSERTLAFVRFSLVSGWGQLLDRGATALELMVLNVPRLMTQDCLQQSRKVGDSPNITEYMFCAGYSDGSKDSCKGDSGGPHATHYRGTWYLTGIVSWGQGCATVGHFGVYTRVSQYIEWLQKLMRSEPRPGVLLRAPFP

Molecule | procoagulant effect of heparanase on Xa level (TF/heparanase complex [2]) | procoagulant effect induced by heparanase (Xa level) (TF/heparanase complex [2]) | further results
O=C(NC[C@H]1CN(c2ccc(N3CCOCC3=O)cc2)C(=O)O1)c1ccc(Cl)s1 [Rivaroxaban, reference compound] | – | – | heparanase procoagulant activity (thrombin generation) (TF/heparanase complex [1]): abolished the effect of heparanase; heparanase procoagulant activity (thrombin generation) (TF/heparanase complex [1]; listed as rivaroxaban): abolished the procoagulant effect of heparanase
AEICLLPLDYGPCR (cysteine pairing not given here) [Peptide 6] | abolished the procoagulant effect of heparanase | inhibited the procoagulant effect induced by heparanase | procoagulant effect of heparanase (TAT level) (TF/heparanase complex [3]): completely abolished the procoagulant effect of heparanase
Ac-AEICLLPLDYGPCR (cysteine pairing not given here) [Peptide 6-Ac] | – | inhibited the procoagulant effect induced by heparanase | –
Ac-Ile Cys Leu Leu Pro Leu Asp Tyr Gly Pro Cys Arg Ala Leu (Ac-ICLLPLDYGPCRAL; cysteine pairing not given here) [Peptide 5-Ac] | – | inhibited the procoagulant effect induced by heparanase | –
Ac-NNAEICLLPLDYGP [Peptide 7-Ac] | – | – | water solubility compared to non-acetylated counterpart [4]: more water soluble than their corresponding non acetylated counterparts
ICLLPLDYGPCRAL (cysteine pairing not given here) [Peptide 5] | abolished the procoagulant effect of heparanase | inhibited the procoagulant effect induced by heparanase | procoagulant effect of heparanase (TAT level) (TF/heparanase complex [3]): markedly decreased heparanase effect
NANNFYTWEAC [Peptide 21] | abolished the procoagulant effect of heparanase | – | procoagulant effect of heparanase (TAT level) (TF/heparanase complex [3]): markedly decreased heparanase effect
NNAEICLLPLDYGP [Peptide 7] | abolished the procoagulant effect of heparanase | inhibited the procoagulant effect induced by heparanase | –
RYYYDRYTQSCRQF [Peptide 12] | abolished the procoagulant effect of heparanase | – | –
TFPI: recombinant human tissue factor pathway inhibitor [reference compound] | – | – | heparanase procoagulant activity (thrombin generation) (TF/heparanase complex [1]): attenuated the effect; also recorded: mildly attenuated thrombin generation but failed to abolish the procoagulant effect of heparanase
TFPI-2: recombinant human tissue factor pathway inhibitor 2, purchased from R&D (protein, UniProt P48307 23-235, looked up) Tissue factor pathway …: DAAQEPTGNNAEICLLPLDYGPCRALLLRYYYDRYTQSCRQFLYGGCEGNANNFYTWEACDDACWRIEKVPKVCRLQVSVDDQCEGSTEKYFFNLSSMTCEKFFSGGCHRNRIENRFPDEATCMGFCAPKKIPSFCYSPKDEGLCSANVTRYYFNPRYRTCDAFTYTGCGGNDNNFVSREDCKRACAKALKKKKKMPKLRFASRIRKIRKKQF | – | – | heparanase procoagulant activity (thrombin generation) (TF/heparanase complex [1]): attenuated the effect; also recorded: mildly attenuated thrombin generation but failed to abolish the procoagulant effect of heparanase; inhibitory potency compared to TFPI in the presence of heparanase (TF/heparanase complex [1]; thrombin generation with heparanase): more effective inhibitor than TFPI; also recorded: more potent than TFPI
double mutant inactive heparanase: heparanase mutated at Glu225 and Glu343, critical for the enzyme catalytic activity (protein) QDVVDLDFFTQEPLHLVSPSFLSVTIDANLATDPRFLILLGSPKLRTLARGLSPAYLRFGGTKTDFLIFDPKKESTFEERSYWQSQVNQDICKYGSIPPDVEEKLRLEWPYQEQLLLREHYQKKFKNSTYSRSSVDVLYTFANCSGLDLIFGLNALLRTADLQWNSSNAQLLLDYCSSKGYNISWELGNAPNSFLKKADIFINGSQLGEDFIQLHKLLRKSTFKNAKLYGPDVGQPRRKTAKMLKSFLKAGGEVIDSVTWHHYYLNGRTATKEDFLNPDVLDIFISSVQKVFQVVESTRPGKKVWLGATSSAYGGGAPLLSDTFAAGFMWLDKLGLSARMGIEVVMRQVFFGAGNYHLVDENFDPLPDYWLSLLFKKLVGTKVLMASVQGSKRRKLRVYLHCTNTDNPRYKEGDLTLYAINLHNVTKYLRLPYPFSNKQVDKYLLRPLGPHGLLSKSVQLNGLTLKMVDDQTLPPLMEKPLRPGSSLGLPAFSYSFFVIRNAKVAACI | – | – | increase in factor Xa levels (TF-factor VIIa complex): increased factor Xa levels
